Assay results reported in paper PMC3683064 (PLoS ONE, 2013).

Legend:
[1] = biological target: T1, Lcc4A (Lentinula edodes, UniProt R9WT55); experiment: ABTS oxidation in presence of co-solvent; assay type: biochemical; conditions: 1 mM ABTS, 1x McIlvaine buffer pH 4, 30 °C; co-solvent effect, non-specific
T1 construct: full cDNA ORF (527 residues) in pPIC3.5K, secreted from Pichia pastoris GS115 and purified; signal peptide predicted
T1 sequence (R9WT55 18-527): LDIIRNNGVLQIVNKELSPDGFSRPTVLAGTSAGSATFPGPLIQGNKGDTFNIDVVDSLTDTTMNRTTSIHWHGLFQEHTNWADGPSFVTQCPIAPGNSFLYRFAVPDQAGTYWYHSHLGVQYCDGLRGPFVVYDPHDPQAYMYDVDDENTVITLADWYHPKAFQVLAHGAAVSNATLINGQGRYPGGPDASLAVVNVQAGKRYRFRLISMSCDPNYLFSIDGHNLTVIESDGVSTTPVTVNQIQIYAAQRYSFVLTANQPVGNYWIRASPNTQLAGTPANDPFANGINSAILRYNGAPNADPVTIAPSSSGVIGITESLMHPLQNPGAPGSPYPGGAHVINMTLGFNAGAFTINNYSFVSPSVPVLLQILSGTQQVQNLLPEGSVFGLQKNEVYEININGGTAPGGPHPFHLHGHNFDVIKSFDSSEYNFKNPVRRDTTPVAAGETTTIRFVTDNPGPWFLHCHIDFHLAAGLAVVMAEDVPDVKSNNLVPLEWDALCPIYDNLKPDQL
Description: ABTS oxidation in presence of co-solvent on Lcc4A

[2] = biological target: T2, Lcc7 (Lentinula edodes, UniProt R9WS76); experiment: ABTS oxidation in presence of co-solvent; assay type: biochemical; conditions: 1 mM ABTS, 1x McIlvaine buffer pH 4, 30 °C; co-solvent effect, non-specific
T2 construct: full cDNA ORF (560 residues) in pPIC3.5K, secreted from Pichia pastoris GS115 and purified; signal peptide predicted
T2 sequence (R9WS76 30-560): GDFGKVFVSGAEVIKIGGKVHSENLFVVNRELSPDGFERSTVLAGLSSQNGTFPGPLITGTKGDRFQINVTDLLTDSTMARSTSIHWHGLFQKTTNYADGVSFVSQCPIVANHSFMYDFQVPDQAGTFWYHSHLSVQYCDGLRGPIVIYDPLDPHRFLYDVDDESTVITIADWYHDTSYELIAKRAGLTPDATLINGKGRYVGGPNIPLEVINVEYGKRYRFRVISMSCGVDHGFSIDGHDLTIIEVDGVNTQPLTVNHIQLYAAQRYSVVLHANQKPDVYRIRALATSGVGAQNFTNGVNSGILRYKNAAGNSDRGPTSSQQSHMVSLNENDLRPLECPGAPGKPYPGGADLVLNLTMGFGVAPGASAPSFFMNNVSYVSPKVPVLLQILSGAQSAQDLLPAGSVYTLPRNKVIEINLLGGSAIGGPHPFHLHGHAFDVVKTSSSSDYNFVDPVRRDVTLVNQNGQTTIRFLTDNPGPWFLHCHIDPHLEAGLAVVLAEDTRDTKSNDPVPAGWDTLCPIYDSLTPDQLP
Description: ABTS oxidation in presence of co-solvent on Lcc7

[3] = biological target: T3, Lcc5 (Lentinula edodes, UniProt R9WU11); experiment: ABTS oxidation in presence of co-solvent; assay type: biochemical; conditions: 1 mM ABTS, 1x McIlvaine buffer pH 4, 30 °C; co-solvent effect, non-specific
T3 construct: full cDNA ORF (515 residues) in pPIC3.5K, secreted from Pichia pastoris GS115 and purified; signal peptide predicted
T3 sequence (R9WU11 22-515): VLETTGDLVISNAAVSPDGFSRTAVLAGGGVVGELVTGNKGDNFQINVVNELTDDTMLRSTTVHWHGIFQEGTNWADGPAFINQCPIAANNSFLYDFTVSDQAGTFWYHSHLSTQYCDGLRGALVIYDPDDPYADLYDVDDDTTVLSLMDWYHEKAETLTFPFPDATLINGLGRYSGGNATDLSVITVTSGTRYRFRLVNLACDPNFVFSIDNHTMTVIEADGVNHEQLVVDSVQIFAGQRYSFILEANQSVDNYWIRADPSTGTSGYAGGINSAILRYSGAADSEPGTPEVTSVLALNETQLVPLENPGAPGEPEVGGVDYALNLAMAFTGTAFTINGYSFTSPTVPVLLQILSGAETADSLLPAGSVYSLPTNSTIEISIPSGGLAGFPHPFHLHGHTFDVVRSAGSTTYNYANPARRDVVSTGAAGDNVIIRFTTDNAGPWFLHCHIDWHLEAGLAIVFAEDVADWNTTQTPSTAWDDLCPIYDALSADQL
Description: ABTS oxidation in presence of co-solvent on Lcc5

[4] = substrate: COc1ccccc1O; experiment: purified protein; conditions: 1x McIlvaine buffer pH 4, 30 °C
[5] = substrate: COc1cccc(OC)c1O; experiment: spectrophotometric oxidation assay; assay type: biochemical, Lentinula edodes; conditions: 1x McIlvaine buffer pH 4, 30 °C
Description: (§1) spectrophotometric oxidation assay on Lcc4A

[6] = substrate: N[C@@H](Cc1ccc(O)c(O)c1)C(=O)O; experiment: spectrophotometric oxidation assay; assay type: biochemical, Lentinula edodes; conditions: 1x McIlvaine buffer pH 4, 30 °C
Description: as §1

[7] = substrate: Oc1ccccc1O; experiment: spectrophotometric oxidation assay; assay type: biochemical, Lentinula edodes; conditions: 1x McIlvaine buffer pH 4, 30 °C
Description: as §1

[8] = substrate: CCn1c(=NN=c2sc3cc(S(=O)(=O)O)ccc3n2CC)sc2cc(S(=O)(=O)O)ccc21; experiment: purified protein; assay type: biochemical, Lentinula edodes; conditions: 1x McIlvaine buffer pH 4, 30 °C
[9] = substrate: COc1cccc(OC)c1O; experiment: spectrophotometric oxidation assay; assay type: biochemical, Lentinula edodes; conditions: 1x McIlvaine buffer pH 4, 30 °C; remark: listed apart in the source
Description: (§2) spectrophotometric oxidation assay on Lcc5

[10] = substrate: N[C@@H](Cc1ccc(O)c(O)c1)C(=O)O; experiment: spectrophotometric oxidation assay; assay type: biochemical, Lentinula edodes; conditions: 1x McIlvaine buffer pH 4, 30 °C; remark: listed apart in the source
Description: as §2

[11] = substrate: Oc1ccccc1O; experiment: spectrophotometric oxidation assay; assay type: biochemical, Lentinula edodes; conditions: 1x McIlvaine buffer pH 4, 30 °C; remark: listed apart in the source
Description: as §2

[12] = substrate: COc1cccc(OC)c1O; experiment: spectrophotometric oxidation assay; assay type: biochemical, Lentinula edodes; conditions: 1x McIlvaine buffer pH 4, 30 °C; remark: listed apart in the source
Description: (§3) spectrophotometric oxidation assay on Lcc7

[13] = substrate: Oc1ccccc1O; experiment: spectrophotometric oxidation assay; assay type: biochemical, Lentinula edodes; conditions: 1x McIlvaine buffer pH 4, 30 °C; remark: listed apart in the source
Description: as §3

In the case of `CC#N` [ACN], the “IC50 ^d (v/v %) / ACN” value [1] is reported as 30 v/v %, the “IC50 ^d (v/v %) / ACN” value [2] is reported as 17 v/v % and the “IC50 ^d (v/v %) / ACN” value [3] is reported as 18 v/v %.

In the case of `CO` [MeOH], the “IC50 ^d (v/v %) / MeOH” value [1] is reported as 28 v/v %.

For `CCO` [EtOH], the “IC50 ^d (v/v %) / EtOH” value [2] was 22 v/v % and the “IC50 ^d (v/v %) / ACN” value [3] was 18 v/v %.

B1: Lcc4A (Lentinula edodes) (protein)
chain: T1 sequence (R9WT55 18-527)
notes: full cDNA ORF (527 residues) in pPIC3.5K, secreted from Pichia pastoris GS115 and purified; signal peptide predicted
In the case of B1, the Km [4] is reported as 648 ± 105 µM, the Vmax [4] is reported as 0.16 µmol/min/mg and the Vmax/Km [4] is reported as 246 µL/min/mg. For the same molecule, the Km [5] was 26.0 ± 2.4 µM, the Vmax [5] was 0.26 µmol/min/mg and the Vmax/Km [5] was 10000 µL/min/mg. The Km [6] was 1040 ± 150 µM, the Vmax [6] was 1.07 µmol/min/mg and the Vmax/Km [6] was 1030 µL/min/mg. It also gave a Km [7] of 255 ± 76 µM, a Vmax [7] of 0.91 µmol/min/mg and a Vmax/Km [7] of 3720 µL/min/mg. It also gave a Km [8] of 11.2 ± 0.9 µM, a Vmax [8] of 0.61 µmol/min/mg and a Vmax/Km [8] of 54400 µL/min/mg.

B2: Lcc5 (Lentinula edodes) (protein)
chain: T3 sequence (R9WU11 22-515)
notes: full cDNA ORF (515 residues) in pPIC3.5K, secreted from Pichia pastoris GS115 and purified; signal peptide predicted
With B2 the Km [4] was 1270 ± 90 µM, the Vmax [4] was 0.32 µmol/min/mg and the Vmax/Km [4] was 257 µL/min/mg. The Km [8] was 325 ± 47 µM, the Vmax [8] was 2.26 µmol/min/mg and the Vmax/Km [8] was 6940 µL/min/mg. For the same molecule, the Km [9] was 113 ± 8 µM, the Vmax [9] was 0.6 µmol/min/mg and the Vmax/Km [9] was 5300 µL/min/mg. It also gave a Km [10] of 10500 ± 700 µM, a Vmax [10] of 1.66 µmol/min/mg and a Vmax/Km [10] of 158 µL/min/mg. It also gave a Km [11] of 6280 ± 680 µM, a Vmax [11] of 2.65 µmol/min/mg and a Vmax/Km [11] of 424 µL/min/mg.

B3: Lcc7 (Lentinula edodes) (protein)
chain: T2 sequence (R9WS76 30-560)
notes: full cDNA ORF (560 residues) in pPIC3.5K, secreted from Pichia pastoris GS115 and purified; signal peptide predicted
B3 gave a Km [4] of 8630 ± 2120 µM, a Vmax [4] of 0.18 µmol/min/mg and a Vmax/Km [4] of 21.4 µL/min/mg. For the same molecule, the Km [8] was 36.3 ± 1.9 µM, the Vmax [8] was 19.7 µmol/min/mg and the Vmax/Km [8] was 543000 µL/min/mg. The Km [12] was 12000 ± 1000 µM, the Vmax [12] was 1.73 µmol/min/mg and the Vmax/Km [12] was 144 µL/min/mg. The Km [13] was 38800 ± 5300 µM, the Vmax [13] was 0.53 µmol/min/mg and the Vmax/Km [13] was 13.8 µL/min/mg.
